Reference: PMC12032302, “A20 attenuates oxidized self-DNA-mediated inflammation in acute kidney injury” (Signal Transduction and Targeted Therapy, 2025)

Columns and labels:
[1] = biological target: T1, HA-NEK7 (mouse NIMA-related kinase 7, wild type) (mouse, UniProt Q9ES74 1-302); assay: BLI; 3×HA-NEK7 (WT or Tri-MUT) purified from HEK293T with HA antibody; legend: P-II diluted into the indicated concentrations; methods: peptide immobilised on AR2G biosensors; 1:1 binding model; settings: both partners purified
T1 construct: NEK7, mouse, cDNA amplified from a mouse cDNA library; also called WT-NEK7; HA-WT-NEK7; source: HEK293T, transiently transfected, in lysate; for BLI purified with HA antibody, eluted with 0.1 M glycine pH 2.0
T1 sequence (Q9ES74 whole entry): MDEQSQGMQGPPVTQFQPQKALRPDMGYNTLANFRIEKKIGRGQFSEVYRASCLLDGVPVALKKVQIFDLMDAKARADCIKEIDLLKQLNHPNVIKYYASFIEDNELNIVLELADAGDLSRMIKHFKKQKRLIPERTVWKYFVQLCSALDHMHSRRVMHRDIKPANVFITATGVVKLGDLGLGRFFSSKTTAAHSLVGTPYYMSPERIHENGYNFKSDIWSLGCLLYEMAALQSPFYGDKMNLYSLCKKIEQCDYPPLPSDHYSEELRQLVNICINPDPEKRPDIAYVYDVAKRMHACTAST

[2] = biological target: T2, recombinant human NEK7 protein (human, UniProt Q8TDX7 1-302); assay: BLI; peptide immobilised on Octet AR2G biosensors at 400 μg/ml for 500 s; recombinant human NEK7 39.0625 to 1250 nM, association 120 s, dissociation 120 s; 1:1 binding model; settings: both partners purified
T2 construct: NEK7, human, recombinant; source: bought: SinoBiological
T2 sequence (Q8TDX7 whole entry): as the sequence (Q9ES74 whole entry) above, with T14P, S52A, D150E, I273M, I285V, A286T, T302S counted along it

B1: A20-derived peptide P-II (peptide)
peptide: KLVALKTNGDGNCLMHAACQYMWGVQDTD
notes: peptide generated according to the OTU domain of A20; also called NEK7 targeting peptide; source: synthetic peptide (constructed by GeneWiz; for BLI: Bootech BioScience &Technology)
binding result [1]: binds
binding result [2]: binds
